Measurements as given in patent publication US20260069689A1 (Regeneron, published 2026).
Substitutions are numbered along the chain they refer to.

B1: mAb15170 (antibody, V domains shown)
VH: EVQLVESGGGLVQPGGSLRLSCAATGITVSSNYMSWVRQAPGKGLEWVSLIYSGGSTFYADSVKGRFTISRHNSKNTLYLQMSSLRAEDTAVYYCARDLVDFGMDVWGQGTTVTVSS
VL: DIQLTQSPSSLSASVGDRVTITCRASQGISNYLAWYQQKPGKAPKLLIYAASTLQSGVPSRFSGSGSGTDFTLTISSLQPEDFGTYYCQQLNSDSPTFGQGTKVEIKR
B2: mAb14230 (antibody)
heavy: not shown
light: EIVLTQSPGTLSLSPGERATLSCRASQTVISTYLAWYQQKPGQSPRLLIYGASSRATGIPDRFSGSGSGTDFTLTISRLEPEDFAVYYCQQYGSSPQLTFGGGTKVEIKRTVAAPSVFIFPPSDEQLKSGTASVVCLLNNFYPREAKVQWKVDNALQSGNSQESVTEQDSKDSTYSLSSTLTLSKADYEKHKVYACEVTHQGLSSPVTKSFNRGEC
B3: mAb15163 (antibody, V domains shown)
VH: EVQLVETGGGLIQPGESLRLSCAASGFIVSTNYMNWVRQAPGKGLEWVSVIYRGGSTYYADSVKGRFTISRDNSKNTLFLQMNSLRAEDTAVYYCARGHEDFDYDTPASGAFDIWGQGTMVTVSS
VL: QSALTQPPSASGSPGQSVTISCTGTSSDVGGHNYVSWYQQHPGKAPKVMIYEVSKRPSGVPDRFSGSKSGNTASLTVSGLQAEDEADYYCSSYAGSNKFVFGTGTKVTVLG
B4: mAb14280 (antibody)
heavy: not shown
light: QSALTQPPSASGSPGQSVTISCTGTSSDVGGYNFVSWYQQHPGKAPKLMIYEVSKRPSGVPDRFSGSKSGNTASLTVSGLQAEDEADYYCSSYAGSNNFVFGTGTKVTVLGQPKAAPSVTLFPPSSEELQANKATLVCLISDFYPGAVTVAWKADSSPVKAGVETTTPSKQSNNKYAASSYLSLTPEQWKSHRSYSCQVTHEGSTVEKTVAPTECS
B5: mAb15164 (antibody, V domains shown)
VH: EVQLVESGGGLVQPGGSLRLSCAASGFAVSSNYMTWVRQAPGKGLEWVATIYSGDSTYYADSVKGRFTISRHNSKNTLSLQMNSLRADDTAIYYCARLSGVLSGTYNGAFDIWGQGTMVTVSS
VL: QSALTQPASVSGSPGQSITISCTGTSSDFGNYNIVSWYQQHPGQAPKVMIYEGNKRPSGVSNRFSGSKSGHTASLTISGLQAEDEADYYCSSYAGSSTWVFGGGTKLTVLG
B6: mAb15166 (antibody, V domains shown)
VH: EVQLVESGGGLVQPGGSLRLSCAASGFTVTSNYMSWVRQAPGKGLEWVSAIYSGESTYYADSVKGRFTISRDSSKNTLYLQMNSLRVEDTAVYYCASIHDYSNYVGGFDPWGQGTLVTVSS
VL: B5 VL with T25P, N31S, I34L, Q44K, V48L, N54T, H71N
B7: mAb15165 (antibody, V domains shown)
VH: EVQLVESGGGLVQPGGSLRLSCAASGFTVSSNYMSWVRQAPGKGLEWVSAIYSGDSTYYADSVKGRFTISKDNSKNTLYLQMNSLRGEDTAVYYCARLGGALQAYDGAFDYWGQGTLATVSS
VL: B5 VL with N31S, I34L, Q44K, V48L, N62I, H71N
B8: mAb14235 (antibody)
heavy: not shown
light: QSALTQPASVSGSPGQSITISCTATSSDVGTYNYVSWFQHHPGKAPKLMIYEVTNRPSGVSNRFSGSKSGNTASLTISGLQAEDEADYYCSSYTTTSIVFGGGTKLTVLGQPKAAPSVTLFPPSSEELQANKATLVCLISDFYPGAVTVAWKADSSPVKAGVETTTPSKQSNNKYAASSYLSLTPEQWKSHRSYSCQVTHEGSTVEKTVAPTECS
B9: mAb14247 (antibody)
heavy: not shown
light: QSALTQPASVSGSPGQSITISCTATSSDVGNYNYVSWYQQHPGKAPKLMIYEVSNRPSGVSNRFSGSKSGNTASLTISGLQAEDEADYYCSSYTSSSTPLVFGGGTKLTVLGQPKAAPSVTLFPPSSEELQANKATLVCLISDFYPGAVTVAWKADSSPVKAGVETTTPSKQSNNKYAASSYLSLTPEQWKSHRSYSCQVTHEGSTVEKTVAPTECS
B10: mAb15151 (antibody, V domains shown)
VH: QVQLVESGGGVVQPGRSLRLSCAASGFVFNSYGMHWVRQAPGKGLEWVAVLWYEGSKNYYADSVKGRFTISRDNSKNTLYLQMNSLRAEDTAVYYCARHGSGSFFGYYLDYWGQGTLVTVSS
VL: DIQMTQSPSSLSASVGDRVTITCRASHNINDFLNWYQQKPGKAPRLLIYAASSLQSGVPSRFSGSGSGTDFTLTISSLQPEDFATYYCQESYTTPPTFGQGTKLEIKR
B11: mAb13458 (antibody)
heavy: not shown
light: AIQMTQSPSSLSASVGDRVTITCRASQDIRNDLGWYQQKPGKAPKLLIYSASSLQTGVPSRFSGSGSGTDFTLTISSLHPEDFATYYCLQDYWYTWTFGQGTKVEIKRTVAAPSVFIFPPSDEQLKSGTASVVCLLNNFYPREAKVQWKVDNALQSGNSQESVTEQDSKDSTYSLSSTLTLSKADYEKHKVYACEVTHQGLSSPVTKSFNRGEC
B12: mAb15150 (antibody, V domains shown)
VH: EVQLVETGGGLIQPGGSLRLSCAAPGFIVSSNYMSWVRQAPGKGLEWVSLLYPGGSTYYADSVKGRFTISRDNSKNTLYLQMNSLRADDTAVYYCARVLPIVEDHFDYWGQGTLVTVSS
VL: DIQLTQSPSFLSASVGDRVTITCRASQGMSSYLAWYQKKPGKAPKLLIYGATILQSGVPSRFSGSGSGTEFTLTISSLQPEDFATYYCQQLNSDPLYMYTFGQGTKLEIKR
B13: mAb14234 (antibody)
heavy: not shown
light: QSVLTQPPSVSGAPGQRVTISCTGSSSNIGIGYDVHWYQQLPGTVPKLLIYGNTNRPSGVPDRFSGSKSGTSASLAITGLQAEDEADYYCQSYDSSLSSYVFGTGTKVTVLGQPKAAPSVTLFPPSSEELQANKATLVCLISDFYPGAVTVAWKADSSPVKAGVETTTPSKQSNNKYAASSYLSLTPEQWKSHRSYSCQVTHEGSTVEKTVAPTECS

Key:
[1] = molecular target: SARS-COV-2 RBD-MMH (SARS-CoV-2); assay: SPR 37C, run with dissociation at pH 7.4
[2] = molecular target: SARS-COV-2 RBD-MMH (SARS-CoV-2); assay: SPR 37C, run with dissociation at pH 5.0
[3] = molecular target: SARS-COV-2 RBD-MMH (SARS-CoV-2); assay: SPR 37C
[4] = molecular target: human FcγR3a 176Val allotype receptor (human, UniProt P08637 17-254); assay: cell-based or functional assay

| Binder | RBD.mmh Bound at pH 7.4 (RU) [1] [RU] | koff [1] [s⁻¹] | RBD.mmh Bound at pH 7.4 (RU) [2] [RU] | koff [2] [s⁻¹] | t½ [2] [min] | t½ Ratio of pH 7.4 to pH 5.0 [3] | EC50 (M), Jurkat/CD20/spike [4] [M] | Fold induction, Jurkat CD20 [4] [fold] | Fold induction, Jurkat/CD20/spike [4] [fold] |
| --- | --- | --- | --- | --- | --- | --- | --- | --- | --- |
| B1 | 120 | 0.000107 | 141 | 6.62e-05 | 174 | 0.6 | – | – | – |
| B2 | 67.6 | 0.00771 | 60.3 | 0.00924 | 1.3 | 1.2 | 1.79e-10 | 1.1 | 9.8 |
| B3 | 81.9 | 0.000494 | 83.2 | 0.00377 | 3.1 | 7.6 | – | – | – |
| B4 | 72.4 | 0.024 | 61.7 | 0.0103 | 1.1 | 0.5 | 2.67e-10 | 1.1 | 13.5 |
| B5 | 145 | 0.00226 | 159 | 0.002 | 5.8 | 0.9 | – | – | – |
| B6 | 65.2 | 0.03 | 60 | 0.035 | 0.3 | 1.2 | – | – | – |
| B7 | 110 | 0.00164 | 127 | 0.000973 | 11.9 | 0.6 | – | – | – |
| B8 | 71.2 | 0.00148 | 80.8 | 0.00119 | 9.7 | 0.8 | 1.43e-10 | 1 | 10.8 |
| B9 | 40.8 | 0.00158 | 51.9 | 0.00191 | 6.1 | 1.2 | 1.79e-10 | 1 | 11.3 |
| B10 | 219 | 0.0068 | 231 | 0.00439 | 2.6 | 0.6 | – | – | – |
| B11 | 96.5 | 0.00161 | 90.9 | 0.00401 | 2.9 | 2.5 | 1.43e-10 | 1.2 | 10.2 |
| B12 | 87.8 | 0.000112 | 92.6 | 1e-05 | 1160 | 0.1 | – | – | – |
| B13 | 37.9 | 0.00221 | 40.4 | 0.00166 | 7 | 0.7 | 2.69e-10 | 1.1 | 12.6 |
